Starred links: 1 amine or outer side, 2 acyl side, 3 side chain; linkers in the order of their positions; H or OH if unused. Non-standard residues stand in square brackets, D forms with d. Groups on a side chain read outwards from the residue. *: point of attachment. γGlu = O=C(O)[C@H](CCC(=O)[*:2])N[*:1]; Palmitoyl = CCCCCCCCCCCCCCCC(=O)*; Aib = CC(C)(N)C(=O)O
B1: Compound 7 (peptide)
peptide: H-H[Aib]EGTFTSDYSKYLDSK([γGlu-Palmitoyl])AAHDFVEWLLSA-NH2
SMILES: CCCCCCCCCCCCCCCC(=O)N[C@@H](CCC(=O)NCCCC[C@H](NC(=O)[C@H](CO)NC(=O)[C@H](CC(=O)O)NC(=O)[C@H](CC(C)C)NC(=O)[C@H](Cc1ccc(O)cc1)NC(=O)[C@H](CCCCN)NC(=O)[C@H](CO)NC(=O)[C@H](Cc1ccc(O)cc1)NC(=O)[C@H](CC(=O)O)NC(=O)[C@H](CO)NC(=O)[C@@H](NC(=O)[C@H](Cc1ccccc1)NC(=O)[C@@H](NC(=O)CNC(=O)[C@H](CCC(=O)O)NC(=O)C(C)(C)NC(=O)[C@@H](N)Cc1c[nH]cn1)[C@@H](C)O)[C@@H](C)O)C(=O)N[C@@H](C)C(=O)N[C@@H](C)C(=O)N[C@@H](Cc1c[nH]cn1)C(=O)N[C@@H](CC(=O)O)C(=O)N[C@@H](Cc1ccccc1)C(=O)N[C@H](C(=O)N[C@@H](CCC(=O)O)C(=O)N[C@@H](Cc1c[nH]c2ccccc12)C(=O)N[C@@H](CC(C)C)C(=O)N[C@@H](CC(C)C)C(=O)N[C@@H](CO)C(=O)N[C@@H](C)C(N)=O)C(C)C)C(=O)O
B2: Compound 10 (peptide)
peptide: H-H[Aib]QETFTSDYSKYLDSK([γGlu-Palmitoyl])AAHDFVEWLLSA-NH2
SMILES: CCCCCCCCCCCCCCCC(=O)N[C@@H](CCC(=O)NCCCC[C@H](NC(=O)[C@H](CO)NC(=O)[C@H](CC(=O)O)NC(=O)[C@H](CC(C)C)NC(=O)[C@H](Cc1ccc(O)cc1)NC(=O)[C@H](CCCCN)NC(=O)[C@H](CO)NC(=O)[C@H](Cc1ccc(O)cc1)NC(=O)[C@H](CC(=O)O)NC(=O)[C@H](CO)NC(=O)[C@@H](NC(=O)[C@H](Cc1ccccc1)NC(=O)[C@@H](NC(=O)[C@H](CCC(=O)O)NC(=O)[C@H](CCC(N)=O)NC(=O)C(C)(C)NC(=O)[C@@H](N)Cc1c[nH]cn1)[C@@H](C)O)[C@@H](C)O)C(=O)N[C@@H](C)C(=O)N[C@@H](C)C(=O)N[C@@H](Cc1c[nH]cn1)C(=O)N[C@@H](CC(=O)O)C(=O)N[C@@H](Cc1ccccc1)C(=O)N[C@H](C(=O)N[C@@H](CCC(=O)O)C(=O)N[C@@H](Cc1c[nH]c2ccccc12)C(=O)N[C@@H](CC(C)C)C(=O)N[C@@H](CC(C)C)C(=O)N[C@@H](CO)C(=O)N[C@@H](C)C(N)=O)C(C)C)C(=O)O
B3: Compound 4 (peptide)
peptide: H-H[Aib]PGTFTSDYSKYLDSK([γGlu-Palmitoyl])AAHDFVEWLLSA-NH2
SMILES: CCCCCCCCCCCCCCCC(=O)N[C@@H](CCC(=O)NCCCC[C@H](NC(=O)[C@H](CO)NC(=O)[C@H](CC(=O)O)NC(=O)[C@H](CC(C)C)NC(=O)[C@H](Cc1ccc(O)cc1)NC(=O)[C@H](CCCCN)NC(=O)[C@H](CO)NC(=O)[C@H](Cc1ccc(O)cc1)NC(=O)[C@H](CC(=O)O)NC(=O)[C@H](CO)NC(=O)[C@@H](NC(=O)[C@H](Cc1ccccc1)NC(=O)[C@@H](NC(=O)CNC(=O)[C@@H]1CCCN1C(=O)C(C)(C)NC(=O)[C@@H](N)Cc1c[nH]cn1)[C@@H](C)O)[C@@H](C)O)C(=O)N[C@@H](C)C(=O)N[C@@H](C)C(=O)N[C@@H](Cc1c[nH]cn1)C(=O)N[C@@H](CC(=O)O)C(=O)N[C@@H](Cc1ccccc1)C(=O)N[C@H](C(=O)N[C@@H](CCC(=O)O)C(=O)N[C@@H](Cc1c[nH]c2ccccc12)C(=O)N[C@@H](CC(C)C)C(=O)N[C@@H](CC(C)C)C(=O)N[C@@H](CO)C(=O)N[C@@H](C)C(N)=O)C(C)C)C(=O)O
B4: Compound 8 (peptide)
peptide: H-H[Aib]QATFTSDYSKYLDSK([γGlu-Palmitoyl])AAHDFVEWLLSA-NH2
SMILES: CCCCCCCCCCCCCCCC(=O)N[C@@H](CCC(=O)NCCCC[C@H](NC(=O)[C@H](CO)NC(=O)[C@H](CC(=O)O)NC(=O)[C@H](CC(C)C)NC(=O)[C@H](Cc1ccc(O)cc1)NC(=O)[C@H](CCCCN)NC(=O)[C@H](CO)NC(=O)[C@H](Cc1ccc(O)cc1)NC(=O)[C@H](CC(=O)O)NC(=O)[C@H](CO)NC(=O)[C@@H](NC(=O)[C@H](Cc1ccccc1)NC(=O)[C@@H](NC(=O)[C@H](C)NC(=O)[C@H](CCC(N)=O)NC(=O)C(C)(C)NC(=O)[C@@H](N)Cc1c[nH]cn1)[C@@H](C)O)[C@@H](C)O)C(=O)N[C@@H](C)C(=O)N[C@@H](C)C(=O)N[C@@H](Cc1c[nH]cn1)C(=O)N[C@@H](CC(=O)O)C(=O)N[C@@H](Cc1ccccc1)C(=O)N[C@H](C(=O)N[C@@H](CCC(=O)O)C(=O)N[C@@H](Cc1c[nH]c2ccccc12)C(=O)N[C@@H](CC(C)C)C(=O)N[C@@H](CC(C)C)C(=O)N[C@@H](CO)C(=O)N[C@@H](C)C(N)=O)C(C)C)C(=O)O
B5: Compound 9 (peptide)
peptide: H-HSQ[Aib]TFTSDYSKYLDSK([γGlu-Palmitoyl])AAHDFVEWLLSA-NH2
SMILES: CCCCCCCCCCCCCCCC(=O)N[C@@H](CCC(=O)NCCCC[C@H](NC(=O)[C@H](CO)NC(=O)[C@H](CC(=O)O)NC(=O)[C@H](CC(C)C)NC(=O)[C@H](Cc1ccc(O)cc1)NC(=O)[C@H](CCCCN)NC(=O)[C@H](CO)NC(=O)[C@H](Cc1ccc(O)cc1)NC(=O)[C@H](CC(=O)O)NC(=O)[C@H](CO)NC(=O)[C@@H](NC(=O)[C@H](Cc1ccccc1)NC(=O)[C@@H](NC(=O)C(C)(C)NC(=O)[C@H](CCC(N)=O)NC(=O)[C@H](CO)NC(=O)[C@@H](N)Cc1c[nH]cn1)[C@@H](C)O)[C@@H](C)O)C(=O)N[C@@H](C)C(=O)N[C@@H](C)C(=O)N[C@@H](Cc1c[nH]cn1)C(=O)N[C@@H](CC(=O)O)C(=O)N[C@@H](Cc1ccccc1)C(=O)N[C@H](C(=O)N[C@@H](CCC(=O)O)C(=O)N[C@@H](Cc1c[nH]c2ccccc12)C(=O)N[C@@H](CC(C)C)C(=O)N[C@@H](CC(C)C)C(=O)N[C@@H](CO)C(=O)N[C@@H](C)C(N)=O)C(C)C)C(=O)O
B6: Compound 12 (peptide)
peptide: H-H[Aib]QFTFTSDYSKYLDSK([γGlu-Palmitoyl])AAHDFVEWLLSA-NH2
SMILES: CCCCCCCCCCCCCCCC(=O)N[C@@H](CCC(=O)NCCCC[C@H](NC(=O)[C@H](CO)NC(=O)[C@H](CC(=O)O)NC(=O)[C@H](CC(C)C)NC(=O)[C@H](Cc1ccc(O)cc1)NC(=O)[C@H](CCCCN)NC(=O)[C@H](CO)NC(=O)[C@H](Cc1ccc(O)cc1)NC(=O)[C@H](CC(=O)O)NC(=O)[C@H](CO)NC(=O)[C@@H](NC(=O)[C@H](Cc1ccccc1)NC(=O)[C@@H](NC(=O)[C@H](Cc1ccccc1)NC(=O)[C@H](CCC(N)=O)NC(=O)C(C)(C)NC(=O)[C@@H](N)Cc1c[nH]cn1)[C@@H](C)O)[C@@H](C)O)C(=O)N[C@@H](C)C(=O)N[C@@H](C)C(=O)N[C@@H](Cc1c[nH]cn1)C(=O)N[C@@H](CC(=O)O)C(=O)N[C@@H](Cc1ccccc1)C(=O)N[C@H](C(=O)N[C@@H](CCC(=O)O)C(=O)N[C@@H](Cc1c[nH]c2ccccc12)C(=O)N[C@@H](CC(C)C)C(=O)N[C@@H](CC(C)C)C(=O)N[C@@H](CO)C(=O)N[C@@H](C)C(N)=O)C(C)C)C(=O)O
B7: Compound 11 (peptide)
peptide: H-H[Aib]Q[Aib]TFTSDYSKYLDSK([γGlu-Palmitoyl])AAHDFVEWLLSA-NH2
SMILES: CCCCCCCCCCCCCCCC(=O)N[C@@H](CCC(=O)NCCCC[C@H](NC(=O)[C@H](CO)NC(=O)[C@H](CC(=O)O)NC(=O)[C@H](CC(C)C)NC(=O)[C@H](Cc1ccc(O)cc1)NC(=O)[C@H](CCCCN)NC(=O)[C@H](CO)NC(=O)[C@H](Cc1ccc(O)cc1)NC(=O)[C@H](CC(=O)O)NC(=O)[C@H](CO)NC(=O)[C@@H](NC(=O)[C@H](Cc1ccccc1)NC(=O)[C@@H](NC(=O)C(C)(C)NC(=O)[C@H](CCC(N)=O)NC(=O)C(C)(C)NC(=O)[C@@H](N)Cc1c[nH]cn1)[C@@H](C)O)[C@@H](C)O)C(=O)N[C@@H](C)C(=O)N[C@@H](C)C(=O)N[C@@H](Cc1c[nH]cn1)C(=O)N[C@@H](CC(=O)O)C(=O)N[C@@H](Cc1ccccc1)C(=O)N[C@H](C(=O)N[C@@H](CCC(=O)O)C(=O)N[C@@H](Cc1c[nH]c2ccccc12)C(=O)N[C@@H](CC(C)C)C(=O)N[C@@H](CC(C)C)C(=O)N[C@@H](CO)C(=O)N[C@@H](C)C(N)=O)C(C)C)C(=O)O
B8: Compound 5 (peptide)
peptide: H-H[Aib]HGTFTSDYSKYLDSK([γGlu-Palmitoyl])AAHEFVEWLLEA-NH2
SMILES: CCCCCCCCCCCCCCCC(=O)N[C@@H](CCC(=O)NCCCC[C@H](NC(=O)[C@H](CO)NC(=O)[C@H](CC(=O)O)NC(=O)[C@H](CC(C)C)NC(=O)[C@H](Cc1ccc(O)cc1)NC(=O)[C@H](CCCCN)NC(=O)[C@H](CO)NC(=O)[C@H](Cc1ccc(O)cc1)NC(=O)[C@H](CC(=O)O)NC(=O)[C@H](CO)NC(=O)[C@@H](NC(=O)[C@H](Cc1ccccc1)NC(=O)[C@@H](NC(=O)CNC(=O)[C@H](Cc1c[nH]cn1)NC(=O)C(C)(C)NC(=O)[C@@H](N)Cc1c[nH]cn1)[C@@H](C)O)[C@@H](C)O)C(=O)N[C@@H](C)C(=O)N[C@@H](C)C(=O)N[C@@H](Cc1c[nH]cn1)C(=O)N[C@@H](CCC(=O)O)C(=O)N[C@@H](Cc1ccccc1)C(=O)N[C@H](C(=O)N[C@@H](CCC(=O)O)C(=O)N[C@@H](Cc1c[nH]c2ccccc12)C(=O)N[C@@H](CC(C)C)C(=O)N[C@@H](CC(C)C)C(=O)N[C@@H](CCC(=O)O)C(=O)N[C@@H](C)C(N)=O)C(C)C)C(=O)O
B9: human GLP-1 (ligand)
peptide: RSLQDTEEKSRSFSASQADPLSDPDQMNEDKRHSQGTFTSDYSKYLDSRRAQDFVQWLMNTKRNRNNIAKRHDEFERHAEGTFTSDVSSYLEGQAAKEFIAWLVKGRGRRDFPEEVAIVEELGRRHADGSFSDEMNTILDNLAARDFINWLIQTKITDRK

Target: human glucagon-like peptide 1 receptor (GLP-1R) (human, UniProt P43220)
Assay: cell-based or functional assay

Going from B1 to B2, the “EC50 (nM) GLP-1R, cAMP formation” value rises from 0.01 nM to 20 nM (2000-fold).

Going from B3 to B4, the “EC50 (nM) GLP-1R, cAMP formation” value rises from 0.1 nM to 8.2 nM (82-fold).

B5 and B6 are within 1.5-fold of each other in “EC50 (nM) GLP-1R, cAMP formation” value: 16 nM for the first, 12 nM for the second.

Going from B7 to B8, the “EC50 (nM) GLP-1R, cAMP formation” value falls from 22 nM to 0.16 nM (140-fold).

Target: human glucagon receptor (glucagon-R) (human, UniProt P47871)
Assay: cell-based or functional assay

First: B1
Second: B2
The “EC50 (nM) GluR, cAMP formation” value of the first is 1.7-fold higher: 26 nM for the first, 15 nM for the second.

Going from B3 to B4, the “EC50 (nM) GluR, cAMP formation” value rises from 0.48 nM to 3 nM (6.2-fold).

Going from B9 to B5, the “EC50 (nM) GluR, cAMP formation” value falls from 100000 nM to 30 nM (3300-fold).

Going from B6 to B7, the “EC50 (nM) GluR, cAMP formation” value falls from 25 nM to 5.1 nM (4.9-fold).

B8 was tested, and the “EC50 (nM) GluR, cAMP formation” value was 0.15 nM.

In the case of B4, the “EC50 (nM) GluR, cAMP formation, earlier determination” value is reported as 23 nM.

Source: patent US20130157929A1, “GLUCAGON ANALOGUES” (ZEALAND PHARMA A/S, published 2013)
